# Assay results as given in paper PMC6406002, “Comparison of the functional properties of trimeric and monomeric CaiT of Escherichia coli” (Scientific Reports, 2019).
# B1: L-carnitine/γ-butyrobetaine antiporter CaiT of Escherichia coli, wild-type (natural protein)
# chain: not shown
# notes: CaiT, L-carnitine/γ-butyrobetaine antiporter of E. coli; the caiT gene cloned into pET21a; also called CaiT(WT); WT; source: E. coli JW0039 with pET21a/caiT, purified (Ni-NTA), in detergent (DDM)
# Biological target: the molecule itself
# Assay: SEC; gel filtration (Superdex 10/300 GL) after incubation at given temperature for 60 min in 100 mM potassium phosphate pH 7.5, 2 mM β-mercaptoethanol, 0.04% DDM
protein,measurement,value
B1,binding result,binds
